Measured values taken from article doi:10.1101/2021.05.05.442822.

Target: H3K9me0 peptide
Assay: FP
Conditions: enzyme; modification not given

B1: Full-length human G9a with an N-terminal MBP tag (MBP:FL-G9a), Q96KQ7 1-1210 (protein)
chain: AAAAGAAAAAAAEGEAPAEMGALLLEKETRGATERVHGSLGDTPRSEETLPKATPDSLEPAGPSSPASVTVTVGDEGADTPVGATPLIGDESENLEGDGDLRGGRILLGHATKSFPSSPSKGGSCPSRAKMSMTGAGKSPPSVQSLAMRLLSMPGAQGAAAAGSEPPPATTSPEGQPKVHRARKTMSKPGNGQPPVPEKRPPEIQHFRMSDDVHSLGKVTSDLAKRRKLNSGGGLSEELGSARRSGEVTLTKGDPGSLEEWETVVGDDFSLYYDSYSVDERVDSDSKSEVEALTEQLSEEEEEEEEEEEEEEEEEEEEEEEEDEESGNQSDRSGSSGRRKAKKKWRKDSPWVKPSRKRRKREPPRAKEPRGVNGVGSSGPSEYMEVPLGSLELPSEGTLSPNHAGVSNDTSSLETERGFEELPLCSCRMEAPKIDRISERAGHKCMATESVDGELSGCNAAILKRETMRPSSRVALMVLCETHRARMVKHHCCPGCGYFCTAGTFLECHPDFRVAHRFHKACVSQLNGMVFCPHCGEDASEAQEVTIPRGDGVTPPAGTAAPAPPPLSQDVPGRADTSQPSARMRGHGEPRRPPCDPLADTIDSSGPSLTLPNGGCLSAVGLPLGPGREALEKALVIQESERRKKLRFHPRQLYLSVKQGELQKVILMLLDNLDPNFQSDQQSKRTPLHAAAQKGSVEICHVLLQAGANINAVDKQQRTPLMEAVVNNHLEVARYMVQRGGCVYSKEEDGSTCLHHAAKIGNLEMVSLLLSTGQVDVNAQDSGGWTPIIWAAEHKHIEVIRMLLTRGADVTLTDNEENICLHWASFTGSAAIAEVLLNARCDLHAVNYHGDTPLHIAARESYHDCVLLFLSRGANPELRNKEGDTAWDLTPERSDVWFALQLNRKLRLGVGNRAIRTEKIICRDVARGYENVPIPCVNGVDGEPCPEDYKYISENCETSTMNIDRNITHLQHCTCVDDCSSSNCLCGQLSIRCWYDKDGRLLQEFNKIEPPLIFECNQACSCWRNCKNRVVQSGIKVRLQLYRTAKMGWGVRALQTIPQGTFICEYVGELISDAEADVREDDSYLFDLDNKDGEVYCIDARYYGNISRFINHLCDPNIIPVRVFMLHQDLRFPRIAFFSSRDIRTGEELGFDYGDRFWDIKSKYFTCQCGSEKCKHSAEAIALEQSRLARLDPHPELLPELGSLPPVNT
For B1, the Kd was 66 µM.
